Test results taken from patent US7998940B2, “Aptamers to von Willebrand factor and their use as thrombotic disease therapeutics” (Archemix Corp., priority 2004, dated 2011).
Positions count from the first letter of the chain named. Like-named read-outs stand apart in the source and are kept apart here. Oligonucleotides are written 5' to 3', each unit as a sugar letter and its base; * is a phosphorothioate linkage, no mark a phosphodiester; rarer units and linkages stand in square brackets, end groups in braces. Plain capitals give the bases only. [invdT] = inverted (3'-3') thymidine; d = 2'-deoxy (DNA); m = 2'-O-methyl; r = 2'-OH (RNA); f = 2'-fluoro

What was measured:
[1] = test system: vWF dependent platelet plug formation, human whole blood; assay: PFA-100 assay, human whole blood; format: cell-based; conditions: for ~IC95 PFA-100 (nM) with citrated human whole blood: minimum concentration that extends closing time to 300 seconds
Source text: Another assay of this Example, using the PFA-100 instrument, is an agonist independent but vWF dependent assay that uses the PFA-100 instrument (Harrison et al., Clin. Lab. Haem., v24, p 225-32 (2002)). The PFA-100 simulates the formation of a hemostatic plug under conditions of high shear force in vivo by recording the time required for a platelets to aggregate and block the flow of citrated whole blood through a microscopic aperture in a membrane coated with collagen and either epinephrine or ADP. This activity is von Willebrand factor dependent as high MW vWF multimers bind to immobilized collagen on the membrane and then bind to and activate platelets because of the shear force induced by drawing the blood through the microscopic aperture.
Fresh whole blood was collected from healthy non-steroidal anti-inflammatory drug (NSAID) free cynomolgus macaques. Aptamers were diluted with physiological saline from Aldon (Cat#9420306) in no-additive vacutainer tubes (Cat#366434, Becton Dickenson). Samples were loaded onto collagen/epinephrine test cartridges (Cat#B4170-20A, Dade Behring) which were used in the PFA-100 machine (Dade Behring). Trigger solution (Cat#B4170-50, Dade Behring) was used in the self-test and to pre-wet the test cartridges. O-ring cleaning pads (Cat#B4170-73, Dade Behring) were used in the self-test and in the O-ring cleaning process.
A self-test, which included an O-ring cleaning process, was always run on the PFA-100 machine before running any samples to ensure proper function of the machine.
During the entire experiment, the tubes of whole blood were gently inverted every five minutes to prevent settling.
In order to assay the titration of aptamer in whole blood, the aptamer was added to no-additive vacutainer tubes and diluted to the desired concentrations (ex: 0 nM, 1 nM to 1000 nM) using physiological saline such that the final volume was […]. When the PFA-100 was ready to run the next set of samples, 1940 μl of whole blood was added to the tube containing a concentration of aptamer. This tube was gently inverted three times to thoroughly mix the aptamer and blood. Samples were always run in duplicate on the PFA-100 machine. 800 μl of this blood mixture was loaded into the collagen/epinephrine test cartridges. The test cartridges were loaded onto the PFA-100 machine. The time of occlusion of the aperture was measured by the PFA-100, with a maximal time of 300 seconds. We estimate the IC95 in this assay to be the minimum concentration of aptamer that extends the closing time to 300 seconds.

[2] = test system: full length human vWF (SEQ ID NO 7); assay: dot blot KD determination and extent of binding, full length human vWF; conditions: for % binding @ 100 nM vWF: extent of aptamer binding at 100 nM full length human vWF; for binding to human vWF: in words;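 for all read-outs here: dot blot binding of aptamers to full length human vWF across a protein titration, incubated 30 minutes at room temperature in 1x DPBS with BSA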
[3] = test system: rabbit vWF A1 domain (SEQ ID NO 6); assay: 3-point dot blot screen, rabbit vWF A1 domain; format: binding; conditions: for Screen Rabbit/No Protein: 3-point dot blot screen, 20 nM rabbit vWF A1 domain, ratio of fraction of aptamer bound with target protein to fraction bound without protein; for Screen- Rabbit/No Protein: 100 nM rabbit vWF A1 domain, ratio of fraction bound with target to without
Chain of rabbit vWF A1 domain (SEQ ID NO 6) (as listed by the source): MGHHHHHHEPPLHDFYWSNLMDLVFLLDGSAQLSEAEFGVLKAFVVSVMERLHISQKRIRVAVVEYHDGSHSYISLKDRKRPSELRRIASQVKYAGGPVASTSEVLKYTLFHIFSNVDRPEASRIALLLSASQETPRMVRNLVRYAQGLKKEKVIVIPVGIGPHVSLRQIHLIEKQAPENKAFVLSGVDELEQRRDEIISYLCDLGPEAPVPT
Procedure, shortened: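 Rabbit vWF A1 domain binding was screened by dot blot using three conditions: no target protein, human vWF, and rabbit vWF A1 domain at 100 nM (20 nM in the screen run twice). Radiolabeled aptamer bound to nitrocellulose was quantified, and results are expressed as the ratio of bound fraction with protein to bound fraction without protein.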

full length human vWF = assay: 3-point dot blot screen, full length human vWF; format: binding; conditions: 20 nM full length human vWF, ratio of fraction of aptamer bound with target protein to fraction bound without protein
Procedure, shortened: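 Unique aptamer clones tested twice by nitrocellulose dot blot with no protein, 20 nM full-length human vWF or 20 nM rabbit vWF A1 domain. Value is fraction of aptamer bound with target divided by fraction bound without protein.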

[4] = target: T1, human vWF A1 domain (SEQ ID NO 5) (Homo sapiens, UniProt P04275, T1381A); assay: dot blot KD determination, human vWF A1 domain
T1 sequence (P04275 with tags, fused parts or gaps T1381A): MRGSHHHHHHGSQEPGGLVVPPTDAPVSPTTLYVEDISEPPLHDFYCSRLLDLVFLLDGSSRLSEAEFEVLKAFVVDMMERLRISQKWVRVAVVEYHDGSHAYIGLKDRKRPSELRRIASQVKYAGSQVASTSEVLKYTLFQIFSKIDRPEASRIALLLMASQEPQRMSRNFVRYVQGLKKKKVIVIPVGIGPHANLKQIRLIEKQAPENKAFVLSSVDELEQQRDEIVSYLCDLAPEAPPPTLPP
Description: For KD determination, aptamers transcripts were purified on 10% denaturing polyacrylamide gels, 5′ end labeled with γ-^32P ATP.
For KD determination, aptamers were purified on denaturing polyacrylamide gels and 5′-end labeled with γ-^32P ATP. A 6 point protein titration of human vWF A1 domain (SEQ ID NO 5) was used in the dot blot assay (333 nM, 100 nM, 33 nM, 10 nM, 3 nM, 0 nM) in 1×DPBS plus 0.1 mg/mL BSA at room temperature for 30 minutes. KD values were calculated by fitting the equation y=(max/(1+K/protein))+yint using KaleidaGraph (KaleidaGraph v. 3.51, Synergy Software).
KD values were calculated by fitting the equation y=(max/(1+K/protein))+yint using KaleidaGraph (KaleidaGraph v. 3.51, Synergy Software).
All minimer sequences were transcribed, gel-purified on 15% denaturing polyacrylamide gels, 5-^32 end-labeled with γ^32P ATP, and then desalted using two Centri-Spin 10 columns (Princeton Separations Cat. #CS-101, Adelphia, N.J.). For KD determination, minimer transcripts were tested for direct binding to full length human vWF (SEQ ID NO 7), human vWF A1 domain (SEQ ID NO 5), and rabbit vWF A1 domain (SEQ ID NO 6) using an 8 point protein titration from 0-300 nM (3 fold dilutions) in 1× Dulbecco's PBS containing 0.1 mg/mL BSA (in a final volume of 50 uL) for 30 minutes at room temperature and then applied to a nitrocellulose and nylon filter sandwich in a dot blot apparatus (Schleicher and Schuell, Keene, N.H.). KD values were calculated by fitting the equation y=(max/(1+K/protein))+yint using KaleidaGraph (KaleidaGraph v. 3.51, Synergy Software).
All minimer DNA sequences were chemically synthesized, 5-^32P end-labeled with γ-^32P ATP, and then desalted using two Centri-Spin 10 columns (Princeton Separations, Cat. #CS-101, Adelphia, N.J.). […] KD values were calculated by fitting the equation y=(max/(1+K/protein))+yint using KaleidaGraph (KaleidaGraph v. 3.51, Synergy Software).

[5] = target: T1, human vWF A1 domain (SEQ ID NO 5); assay: 3-point dot blot screen, human vWF A1 domain; format: binding; conditions: 100 nM human vWF A1 domain
Procedure, shortened: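 Values are ratios of aptamer fraction retained on nitrocellulose with 100 nM vWF A1 domain (human or rabbit) versus a no-protein control. Unique clones from rounds 9 and 12 pools were transcribed, desalted and 5'-32P labeled before this three-point dot blot screen.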

[6] = Phase 3 modification, full length human vWF, dot blot, 8 point protein titration, read-out: KD
[7] = Phase 4 and 5 modification, full length human vWF, read-out: KD
[8] = read-out: Human A1 KD, rRdY aptamers, 6 point protein titration
[9] = rRdY aptamers, ratio of fraction bound with target to without

## PEG20K-NH2-mGmCmGmUdGdCdAmGmUmGmCmCmUmUmCmGmGmCdCmG-s-TmGdCdGdGTmGmCdCmUdCdCmGmUdCmAmCmGmC-3T [ARC1779]
[1]
  ~IC95 PFA-100 (nM) with citrated human whole blood: ~100 nM

## dGdGdCdGTdGdCdAdGTdGdCdCTTdCdGdGdCdCdGTdGdCdGdGTdGdCdCTdCdCdGTdCdAdCdGdCdC-3T (DNA GGCGTGCAGTGCCTTCGGCCGTGCGGTGCCTCCGTCACGCC; DNA, [invdT] at 3' end, backbone and methylation of C not given here) [ARC1172, ARC1115 with 3'-inverted dT]
[1]
  ~IC95 PFA-100 (nM) with citrated human whole blood: ~100 nM
[2]; Phase 1 modification
  % binding @ 100 nM vWF: 37%
[2]; Phase 1 modification, full length human vWF, dot blot, 8 point protein titration, read-out: KD
  Kd: 2 nM
[2]; Phase 3 modification
  % binding @ 100 nM vWF: 37%
[2]; [6]
  Kd: 2 nM
[2]; Phase 4 and 5 modification
  % binding @ 100 nM vWF: 37%
[2]; [7]
  Kd: 2 nM
[2]; dot blot
  binding to human vWF: shown to bind

## mGmCmGmUdGdCdAmGmUmGmCmCmUmUmCmGmGmCdCmG-s-TmGdCdGdGTmGmCdCmUdCdCmGmUdCmAmCmGmC-3T (GCGUGCAGUGCCUUCGGCCGTGCGGTGCCUCCGUCACGC; sugars from the 5' end mmmmdddmmmmmmmmmmmdmdmddddmmdmddmmdmmmm, [invdT] at 3' end, backbone not given here) [ARC1368]
[1]
  ~IC95 PFA-100 (nM) with citrated human whole blood: ~100 nM
[1]; in words, human whole blood
  potency in PFA-100 assay: potency comparable to ReoPrO™
[2]; Phase 3 modification
  % binding @ 100 nM vWF: 38.2%
[2]; [6]
  Kd: 1.8 nM
[2]; Phase 4 and 5 modification
  % binding @ 100 nM vWF: 38.2%
[2]; [7]
  Kd: 1.8 nM
[2]; dot blot
  binding to human vWF: affinity identical (within experimental error) to that of the parent compound

B1: AMX237.A2: DNA SELEX 2 aptamer clone (nucleic acid)
chain: CTACCTACGATCTGACTAGCTCCAGTGTTTCATCCAATAACCGTGCGGTGCCTCCGTGAGCTTACTCTCATGTAGTTCC
modifications: DNA, backbone and methylation of C not given here
notes: DNA SELEX 2 aptamer clone
[3]
  Screen Rabbit/No Protein: 2.34
Full length human vWF
  Screen- Human/No Protein: 2.60

B2: AMX237.A11: DNA SELEX 2 aptamer clone (nucleic acid)
chain: B1 chain with C31T
modifications: DNA, backbone and methylation of C not given here
notes: DNA SELEX 2 aptamer clone
[3]
  Screen Rabbit/No Protein: 2.38
Full length human vWF
  Screen- Human/No Protein: 2.66

B3: AMX238.G5: DNA SELEX 2 aptamer clone (nucleic acid)
DNA: B1 chain with C31T, C34T
modifications: DNA, backbone and methylation of C not given here
notes: DNA SELEX 2 aptamer clone
[3]
  Screen Rabbit/No Protein: 2.68
Full length human vWF
  Screen- Human/No Protein: 3.06

B4: AMX237.B11: DNA SELEX 2 aptamer clone (nucleic acid)
DNA: B1 chain with C31T, C35T
modifications: DNA, backbone and methylation of C not given here
notes: DNA SELEX 2 aptamer clone
[3]
  Screen Rabbit/No Protein: 2.57
Full length human vWF
  Screen- Human/No Protein: 2.87

B5: AMX238.D12: DNA SELEX 2 aptamer clone (nucleic acid)
DNA: B1 chain with C34T
modifications: DNA, backbone and methylation of C not given here
notes: DNA SELEX 2 aptamer clone
[3]
  Screen Rabbit/No Protein: 2.19
Full length human vWF
  Screen- Human/No Protein: 2.40

B6: AMX237.G6: DNA SELEX 2 aptamer clone (nucleic acid)
DNA: CTACCTACGATCTGACTAGCGTGCAGTGCCTATTCCAGGCCGTGCGGTGCCTCCGTCACGCTTACTCTCATGTAGTTCC
modifications: DNA, backbone and methylation of C not given here
notes: DNA SELEX 2 aptamer clone
[3]
  Screen Rabbit/No Protein: 3.63
[2]; dot blot, 12 point protein titration, 1xDPBS plus 0.1 mg/mL BSA, room temperature, 30 minutes, read-out: full length human vWF KD
  Kd: 0.2 nM
Full length human vWF
  Screen- Human/No Protein: 3.80

B7: AMX203.G9: rRdY aptamer clone (nucleic acid)
chain: rGrGrArGdCrGdCrAdCdTdCrArGdCdCrAdCrGrGrGrGdTrGrGrGdTrArGrAdCrGrGdCrGrGrGdTrAdTrGdTrGrGdCdTrGrGdTrGdTdCrGrArArGrGrGdTdTdTdCrGrAdCdCdTdCdTdCdTrGdCdTrArGdC
[4]; [8]
  Kd: 1.3 nM
[3]; rRdY aptamers
  Screen- Rabbit/No Protein: 1.35
[5]; [9]
  Screen- Human/No Protein: 1.65

B8: AMX206.D8: rRdY aptamer clone (nucleic acid)
chain: rGrGrArGdCrGdCrAdCdTdCrArGdCdCrAdCrGrAdCrGrGdTrGrAdTrGrGrAdTdTrArGdCrGdCrGrGdTrGrGrAdTdCdTdTrArAdCrGdTrGdCrGrArGdTdTdTdCrGrAdCdCdTdCdTdCdTrGdCdTrArGdC
[4]; [8]
  Kd: 370 nM
[3]; rRdY aptamers
  Screen- Rabbit/No Protein: 3.76
[5]; [9]
  Screen- Human/No Protein: 2.80

B9: AMX201.C8: rRfY aptamer clone (nucleic acid)
chain: rGrGrArGfCrGfCrAfCfUfCrArGfCfCrAfCfCfCfUfCrGfCrArArGfCrAfUfUfUfUrArArGrArAfUrGrAfCfUfUrGfUrGfCfCrGfCfUrGrGfCfUrGfUfUfUfUfCrGrAfCfCfUfCfUfCfUrGfCfUrArGfC
[4]; read-out: human A1 KD, rRfY aptamers, 8 point titration of human vWF A1 domain
  Kd: 0.2 nM
[3]; rRfY aptamers
  Screen- Rabbit/No Protein: 1.50
[5]; rRfY aptamers, ratio of fraction bound with target to fraction bound without target
  Screen- Human/No Protein: 2.47

B10: AMX205.H10: rRdY aptamer clone (nucleic acid)
chain: rGrGrArGdCrGdCrAdCdTdCrArGdCdCrAdCdTrGdTdTrGdCdCrGrAdCrGrGdTrGrAdTrGdTrAdTdTrArAdCrGdCrGrGrGdCrArAdCrGdTdTrGrGdTrGdTdTdTdCrGrAdCdCdTdCdTdCdTrGdCdTrArGdC
[4]; [8]
  Kd: 397 nM
[3]; rRdY aptamers
  Screen- Rabbit/No Protein: 2.47
[5]; [9]
  Screen- Human/No Protein: 1.88

B11: AMX205.F7: rRdY aptamer clone (nucleic acid)
chain: rGrGrArGdCrGdCrAdCdTdCrArGdCdCrAdCrAdCrGrAdCrAdTdTrGrGdCrGrGrGdTdTrGdTrArAdTdTrAdCdCrAdCrGdCrAdTrGrGdCdTrGdTdTdTrGdTdTdTdCrGrAdCdCdTdCdTdCdTrGdCdTrArGdC
[4]; [8]
  Kd: 1.5 nM
[3]; rRdY aptamers
  Screen- Rabbit/No Protein: 2.37
[5]; [9]
  Screen- Human/No Protein: 3.13
